Non-standard residues stand in square brackets, D forms with d. Primed or numbered codes have the meaning given here. No end group written: not given here. *: point of attachment. Acetyl(1-pyrenyl) = O=C(Cc1ccc2ccc3cccc4ccc1c2c34)*; Aoc′ = aminooctanoic acid linker; pS = N[C@@H](COP(=O)(O)O)C(=O)O; Abu = CC[C@H](N)C(=O)O; AEEA = NCCOCCOCC(=O)O; Ava = NCCCCC(=O)O; βAla = NCCC(=O)O
T1: 14-3-3τ (phospho-Ser binding domain) (UniProt P27348 1-245)
T1 sequence (looked up): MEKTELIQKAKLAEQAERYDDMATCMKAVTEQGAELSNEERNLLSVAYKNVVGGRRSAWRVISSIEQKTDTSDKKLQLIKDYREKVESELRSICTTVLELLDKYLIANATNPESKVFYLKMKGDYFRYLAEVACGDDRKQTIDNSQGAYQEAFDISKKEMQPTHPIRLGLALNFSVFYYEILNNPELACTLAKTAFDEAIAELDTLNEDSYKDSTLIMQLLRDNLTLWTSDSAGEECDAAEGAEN


What was measured:
peptide P2 = test: Apparent KD of lead quencher dyes with peptide P2 (quenching of pyrene fluorescence); type: binding; details: 5 μM pyrene-labeled P2 peptide, dye 0.5-500 μM, 100 mM Tris HCl pH 75, inner filter corrected
Protocol: KD values were acquired for the set of the ten lead quenchers with peptide P2, in order to obtain a target range for the quencher:peptide ratios to be employed in the subsequent assays (vide infra). These apparent KD values were determined using the quenching of pyrene fluorescence as a barometer of peptide/quencher complex stability. […] An inner filter effect (at high dye concentrations) was corrected as previously described^8.
Acquisition of Apparent KD Values for Lead Quencher Dyes with Peptide P2 (FIG. 2).

peptide P5 = test: Apparent KD of lead quencher/peptide pair, Rose Bengal with peptide P5; type: binding
[1] = biological target: phosphorylated P5 peptide AcDap(Pyr)RTGRRFS(PO3^2−)YP-amide; test: Apparent KD of Rose Bengal with phosphorylated P5 peptide; type: binding
[2] = biological target: T2, cAMP-dependent protein kinase (PKA) (Mus musculus, UniProt P05132); test: Control: phosphorylation-induced change in fluorescence of pyrene-labeled peptides in the absence of quenching dye; type: biochemical, murine; parameters: made in house; details: 5 μM peptide, 10 nM PKA, 10 μM 14-3-3τ, 1 mM ATP
Protocol: 2 Identification of the lead pyrene-peptide/quencher pair. The eleven pyrene-substituted peptides (P1-P11 at 5 μM) were incubated with a 5-, 10-, 25-, and 50-fold molar excess of each of the ten lead quenchers in the presence of PKA, ATP, and the phospho-Ser binding domain 14-3-3τ. Several control experiments were performed, including conducting the assay in the absence of quenching agent. Under the latter conditions, only small enhancements in fluorescence (0-64%) were observed (Supporting Information). […] Consequently, the background was subtracted from all readings to establish a baseline upon which changes in fluorescence intensity could be quantified (Supporting Information).
Screening of Lead Quenching Dyes 1-10 with […]. […] The concentrations per well were: 10 nM PKA, 5 μM peptide, 10 μM 14-3-3τ, 1 mM ATP, 5 mM MgCl2, 2 mM DTT, and 25 μM, 50 μM, […] each of 10 different lead dyes in 50 mM Tris at pH 7.5 buffer. The HTS 7000 Bio Assay Reader was set in kinetic mode to monitor the progress of reaction (340 nm excitation filter, […] emission filter, 100 μs and 5 flashes).

[3] = biological target: 14-3-3τ (phospho-Ser binding domain) (UniProt P27348); test: cell-based or functional assay
[4] = biological target: T2, cAMP-dependent protein kinase (PKA); test: PKA inhibitor IC50, standard radioactive ATP method; type: biochemical
[5] = biological target: T2, cAMP-dependent protein kinase (PKA); test: PKA inhibitor IC50, Deep Quench method (Ponceau S/peptide P2, 14-3-3τ); type: biochemical, murine; parameters: made in house; details: [ATP]=1 mM, 1 μM P2, 60 μM Ponceau S, 10 nM PKA
Protocol: This step was used to adjust for inter-assay variability and to verify that no significant drop in enzyme activity occurs over the course of the determinations. Subsequently, inhibitor was added at different concentrations. […] Fractional velocities (v/v0) were plotted against inhibitor concentration [I] and fit using the Sigma Plot version 8.02 software's four-parameter logistic nonlinear regression analysis.

[6] = biological target: T1, 14-3-3τ (phospho-Ser binding domain); test: cell-based or functional assay

Kd (peptide P2) [µM]	Molecule	% Fluorescence Enhancement [2] [%]	also measured
11.9 ± 3.6	Cc1cc(-c2ccc(/N=N/c3c(S(=O)(=O)O)cc4cc(S(=O)(=O)O)cc(N)c4c3O)c(C)c2)ccc1/N=N/c1c(S(=O)(=O)O)cc2cc(S(=O)(=O)O)cc(N)c2c1O [Peptide D48, Trypan Blue]	–	–
7.5 ± 1.6	O=C(O)c1c(Cl)c(Cl)c(Cl)c(Cl)c1-c1c2cc(I)c(=O)c(I)c-2oc2c(I)c(O)c(I)cc12 [Peptide D43, Rose Bengal]	–	Kd (peptide P5; Rose Bengal with unphosphorylated AcDap(Pyr)RTGRRFSYP-amide (P5)): 0.4 ± 0.03 µM; Kd (peptide P5; Rose Bengal with unphosphorylated peptide P5): 0.4 ± 0.03 µM; Kd [1]: 0.21 ± 0.04 µM
–	Ac-Gly-Arg-Thr-Dap(Pyr)-Arg-Arg-Phe-Ser-Tyr-Pro-amide [Peptide P3]	19	–
–	phosphorylated peptide P2, Ac-GRTGRRDap(Pyr)SYP-amide after phosphorylation of Ser by PKA	–	% Fluorescence Enhancement (phosphorylation-induced, PKA + ATP + 14-3-3τ, no quenching dye) [3]: 51%; Fluorescence Change (phosphorylation-induced fold-change), P2/Ponceau S (1:50), plate reader - bottom read [3]: 7 fold; Fluorescence Change (phosphorylation-induced fold-change), P2/Ponceau S (1:50), plate reader - top read [3]: 15 fold; Fluorescence Change (phosphorylation-induced fold-change), P2/Ponceau S (1:50), spectrofluorimeter [3]: 21 fold
–	Pyr-Ava-Gly-Arg-Thr-Gly-Arg-Arg-Phe-Ser-Tyr-Pro-amide ({Acetyl(1-pyrenyl)-Ava}-GRTGRRFSYP-NH2; SMILES C[C@@H](O)[C@H](NC(=O)[C@H](CCCNC(=N)N)NC(=O)CNC(=O)CCCCNC(=O)Cc1ccc2ccc3cccc4ccc1c2c34)C(=O)NCC(=O)N[C@@H](CCCNC(=N)N)C(=O)N[C@@H](CCCNC(=N)N)C(=O)N[C@@H](Cc1ccccc1)C(=O)N[C@@H](CO)C(=O)N[C@@H](Cc1ccc(O)cc1)C(=O)N1CCC[C@H]1C(N)=O) [Peptide P8]	31	–
–	Pyr-Aoc-Gly-Arg-Thr-Gly-Arg-Arg-Phe-Ser-Tyr-Pro-amide ({Acetyl(1-pyrenyl)-Aoc′}-GRTGRRFSYP-NH2) [Peptide P10]	39	–
15 ± 2.1	O=C(O)c1nn(-c2ccc(S(=O)(=O)O)cc2)c(O)c1N=Nc1ccc(S(=O)(=O)O)cc1 [Peptide D47, Tartrazine]	–	–
–	Pyr-Abu-Gly-Arg-Thr-Gly-Arg-Arg-Phe-Ser-Tyr-Pro-amide ({Acetyl(1-pyrenyl)}-[Abu]GRTGRRFSYP-NH2; SMILES CC[C@H](NC(=O)Cc1ccc2ccc3cccc4ccc1c2c34)C(=O)NCC(=O)N[C@@H](CCCNC(=N)N)C(=O)N[C@H](C(=O)NCC(=O)N[C@@H](CCCNC(=N)N)C(=O)N[C@@H](CCCNC(=N)N)C(=O)N[C@@H](Cc1ccccc1)C(=O)N[C@@H](CO)C(=O)N[C@@H](Cc1ccc(O)cc1)C(=O)N1CCC[C@H]1C(N)=O)[C@@H](C)O) [Peptide P7]	47	–
–	Pyr-miniPEG™-Gly-Arg-Thr-Gly-Arg-Arg-Phe-Ser-Tyr-Pro-amide ({Acetyl(1-pyrenyl)-AEEA}-GRTGRRFSYP-NH2; SMILES C[C@@H](O)[C@H](NC(=O)[C@H](CCCNC(=N)N)NC(=O)CNC(=O)COCCOCCNC(=O)Cc1ccc2ccc3cccc4ccc1c2c34)C(=O)NCC(=O)N[C@@H](CCCNC(=N)N)C(=O)N[C@@H](CCCNC(=N)N)C(=O)N[C@@H](Cc1ccccc1)C(=O)N[C@@H](CO)C(=O)N[C@@H](Cc1ccc(O)cc1)C(=O)N1CCC[C@H]1C(N)=O) [Peptide P11]	38	–
11.2 ± 2.7	O=S(=O)(O)c1ccc(/N=N/c2ccc(/N=N/c3c(O)c(S(=O)(=O)O)cc4cc(S(=O)(=O)O)ccc34)c(S(=O)(=O)O)c2)cc1 [Peptide D42, Ponceau S]	–	–
–	phosphorylated peptide P5, AcDap(Pyr)RTGRRFS(PO3^2-)YP-amide	–	% Fluorescence Enhancement (phosphorylation-induced, PKA + ATP + 14-3-3τ, no quenching dye) [3]: 64%; Fluorescence Change (phosphorylation-induced fold-change), P5/Rose Bengal (1:5), plate reader - bottom read [3]: 8 fold; Fluorescence Change (phosphorylation-induced fold-change), P5/Rose Bengal (1:5), plate reader - top read [3]: 30 fold; Fluorescence Change (phosphorylation-induced fold-change), P5/Rose Bengal (1:5), spectrofluorimeter [3]: 64 fold
–	Pyr-BAla-Gly-Arg-Thr-Gly-Arg-Arg-Phe-Ser-Tyr-Pro-amide ({Acetyl(1-pyrenyl)}-[βAla]GRTGRRFSYP-NH2; SMILES C[C@@H](O)[C@H](NC(=O)[C@H](CCCNC(=N)N)NC(=O)CNC(=O)CCNC(=O)Cc1ccc2ccc3cccc4ccc1c2c34)C(=O)NCC(=O)N[C@@H](CCCNC(=N)N)C(=O)N[C@@H](CCCNC(=N)N)C(=O)N[C@@H](Cc1ccccc1)C(=O)N[C@@H](CO)C(=O)N[C@@H](Cc1ccc(O)cc1)C(=O)N1CCC[C@H]1C(N)=O) [Peptide P6]	49	–
–	Ac-Gly-Arg-Dap(Pyr)-Gly-Arg-Arg-Phe-Ser-Tyr-Pro-amide [Peptide P4]	40	–
14.3 ± 3.3	O=[N+]([O-])c1ccc2c(N=Nc3ccc4ccccc4c3O)c(O)cc(S(=O)(=O)O)c2c1 [Peptide D18, Eriochrome Black T]	–	–
–	phosphorylated peptide P4, Ac-GRDap(Pyr)GRRFSYP-amide after phosphorylation of Ser by PKA	–	% Fluorescence Enhancement (phosphorylation-induced, PKA + ATP + 14-3-3τ, no quenching dye) [3]: 40%
–	Ac-Gly-Arg-Thr-Gly-Arg-Arg-Phe-Ser-Dap(Pyr)-Pro-amide [Peptide P1]	0	–
–	phosphorylated peptide P3, Ac-GRTDap(Pyr)RRFSYP-amide after phosphorylation of Ser by PKA	–	% Fluorescence Enhancement (phosphorylation-induced, PKA + ATP + 14-3-3τ, no quenching dye) [3]: 19%
2.8 ± 0.8	Cc1cc(-c2ccc(/N=N/c3ccc4c(S(=O)(=O)O)cc(S(=O)(=O)O)c(N)c4c3O)c(C)c2)ccc1/N=N/c1ccc2c(S(=O)(=O)O)cc(S(=O)(=O)O)c(N)c2c1O [Peptide D3, Evans Blue]	–	–
–	GRTGRRNAI-NH2 (C-terminus assumed) [PKI 14-22]	–	IC50 [4]: 1.6 ± 0.2 µM; IC50 [5]: 1.1 ± 0.1 µM
–	GRTGRRF[pS]YP (also: 7-diethylaminocoumarin-3-carboxylic acid label, site not given here) [coumarin-peptide P12 after phosphorylation]	–	enhancement in fluorescence (16 µM P12, 10 µM 14-3-3, 30 µM Acid Green 27) [6]: 225 fold

Molecule	Kd (peptide P2) [µM]	% Fluorescence Enhancement [2] [%]	also measured
Nc1ccc(N=Nc2ccc(-c3ccc(N=Nc4c(S(=O)(=O)O)cc5cc(S(=O)(=O)O)c(N=Nc6ccccc6)c(O)c5c4N)cc3)cc2)c(N)c1 [Peptide D34, Chlorazol Black E]	7.7 ± 1.5	–	–
Reactive Blue 2 [Peptide D6]	19.6 ± 3.4	–	–

From US20100041068A1, “DEEPLY QUENCHED ENZYME SENSORS AND BINDING SENSORS” (priority 2006, published 2010)
